Laboratory results reported in the supplement of paper PMC9112550, “Optimization of the antimicrobial peptide Bac7 by deep mutational scanning” (BMC Biology, 2022).

test system: Escherichia coli TOP10; experiment: shrunken log2 fold change of peptide-encoding DNA abundance (4.5 h post-induction vs induction); higher = less antimicrobial activity (less host growth inhibition); settings: time post-induction: 4.5 h; library: site-saturation at positions 5, 18, 19, 20
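Note: peptides expressed intracellularly from a pBAD plasmid library in pooled LB shake-flask culture, induced with 0.3% L-arabinose, DNA abundance read by NGS, three biological replicates, DESeq2 with apeglm shrinkage.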

Row | Sequence | shrunken log2 fold change
1 | RRIRKRPPRLPRPRPRPMDDPRP | 0.123
2 | RRIRMRPPRLPRPRPRPSWCPRP | 0.387
3 | RRIRGRPPRLPRPRPRPMGTPRP | 0.48
4 | RRIRSRPPRLPRPRPRPTMPPRP | 0.0349
5 | RRIRMRPPRLPRPRPRPSGCPRP | 0.44
6 | RRIRCRPPRLPRPRPRPKHFPRP | -0.209
7 | RRIRWRPPRLPRPRPRPNNQPRP | -0.494
8 | RRIRKRPPRLPRPRPRPARAPRP | 0.739
9 | RRIRARPPRLPRPRPRPAHHPRP | 0.123
10 | RRIRYRPPRLPRPRPRPFTIPRP | -0.00992
11 | RRIRWRPPRLPRPRPRPRLQPRP | 0.642
12 | RRIRSRPPRLPRPRPRPQVVPRP | -0.144
13 | RRIRDRPPRLPRPRPRPFEWPRP | 0.109
14 | RRIRPRPPRLPRPRPRPQVTPRP | -0.0231
15 | RRIRFRPPRLPRPRPRPWFKPRP | -0.537
16 | RRIRTRPPRLPRPRPRPIFRPRP | 0.00202
17 | RRIRMRPPRLPRPRPRPGFHPRP | -0.039
18 | RRIRNRPPRLPRPRPRPALIPRP | 0.0102
19 | RRIRWRPPRLPRPRPRPPFNPRP | 0.31
20 | RRIRPRPPRLPRPRPRPLNTPRP | -0.482
21 | RRIRWRPPRLPRPRPRPKPYPRP | 3.05
22 | RRIRTRPPRLPRPRPRPRHIPRP | -0.158
23 | RRIRGRPPRLPRPRPRPRRPPRP | 0.756
24 | RRIRPRPPRLPRPRPRPNDMPRP | -0.208
25 | RRIRSRPPRLPRPRPRPLYCPRP | -0.523

Row | Sequence | shrunken log2 fold change
26 | RRIRPRPPRLPRPRPRPQSPPRP | 0.0713
27 | RRIRPRPPRLPRPRPRPTREPRP | 0.177
28 | RRIRHRPPRLPRPRPRPFFIPRP | -0.393
29 | RRIRDRPPRLPRPRPRPRNLPRP | -0.0438
30 | RRIRHRPPRLPRPRPRPDYSPRP | -0.657
31 | RRIRIRPPRLPRPRPRPGKKPRP | 0.0847
32 | RRIRNRPPRLPRPRPRPKNGPRP | 0.96
33 | RRIRVRPPRLPRPRPRPMFGPRP | 0.00478
34 | RRIRARPPRLPRPRPRPPPEPRP | 1.24
35 | RRIRLRPPRLPRPRPRPVILPRP | -1
36 | RRIRWRPPRLPRPRPRPQIEPRP | 0.0601
37 | RRIRQRPPRLPRPRPRPLHSPRP | -0.295
38 | RRIRGRPPRLPRPRPRPFCGPRP | 0.224
39 | RRIRKRPPRLPRPRPRPQRVPRP | 0.146
40 | RRIRHRPPRLPRPRPRPDHKPRP | -0.274
41 | RRIRTRPPRLPRPRPRPMLKPRP | -0.106
42 | RRIRKRPPRLPRPRPRPCLCPRP | -0.138
43 | RRIRPRPPRLPRPRPRPMASPRP | 0.011
44 | RRIRDRPPRLPRPRPRPDWVPRP | 0.0881
45 | RRIRERPPRLPRPRPRPWYTPRP | 3.82
46 | RRIRKRPPRLPRPRPRPDTHPRP | 0.234
47 | RRIRHRPPRLPRPRPRPEYAPRP | 0.0953
48 | RRIRLRPPRLPRPRPRPFQSPRP | 0.0501
49 | RRIRWRPPRLPRPRPRPQSDPRP | -0.239
50 | RRIRTRPPRLPRPRPRPDSIPRP | -0.0295

Row | Sequence | shrunken log2 fold change
51 | RRIRCRPPRLPRPRPRPDWEPRP | -0.524
52 | RRIRLRPPRLPRPRPRPWRIPRP | 0.0246
53 | RRIRRRPPRLPRPRPRPGFCPRP | 0.37
54 | RRIRRRPPRLPRPRPRPMPVPRP | 0.388
55 | RRIRPRPPRLPRPRPRPDWYPRP | -0.213
56 | RRIRRRPPRLPRPRPRPDFEPRP | 0.552
57 | RRIRLRPPRLPRPRPRPWKCPRP | -0.391
58 | RRIRSRPPRLPRPRPRPRGKPRP | 0.0832
59 | RRIRFRPPRLPRPRPRPACGPRP | 0.0797
60 | RRIRERPPRLPRPRPRPMWRPRP | -0.0079
61 | RRIRFRPPRLPRPRPRPPNWPRP | 0.211
62 | RRIRKRPPRLPRPRPRPCCYPRP | 0.0681
63 | RRIRVRPPRLPRPRPRPAKRPRP | 0.615
64 | RRIRPRPPRLPRPRPRPTFWPRP | 0.333
65 | RRIRNRPPRLPRPRPRPTWPPRP | 0.77
66 | RRIRWRPPRLPRPRPRPFQVPRP | -0.19
67 | RRIRLRPPRLPRPRPRPMERPRP | -0.00192
68 | RRIRLRPPRLPRPRPRPFCAPRP | 0.106
69 | RRIRDRPPRLPRPRPRPGQNPRP | -0.0354
70 | RRIRYRPPRLPRPRPRPPCGPRP | -0.406
71 | RRIRIRPPRLPRPRPRPAGEPRP | 0.171
72 | RRIRWRPPRLPRPRPRPTQQPRP | -0.0891
73 | RRIRKRPPRLPRPRPRPSDSPRP | -0.132
74 | RRIRTRPPRLPRPRPRPQCTPRP | -0.175
75 | RRIRKRPPRLPRPRPRPFLFPRP | -0.0622

Row | Sequence | shrunken log2 fold change
76 | RRIRCRPPRLPRPRPRPDSGPRP | 0.0093
77 | RRIRRRPPRLPRPRPRPCMWPRP | 0.313
78 | RRIRCRPPRLPRPRPRPNNPPRP | -0.681
79 | RRIRWRPPRLPRPRPRPDCFPRP | 1.32
80 | RRIRFRPPRLPRPRPRPTILPRP | -0.453
81 | RRIRHRPPRLPRPRPRPWKWPRP | -0.00968
82 | RRIRERPPRLPRPRPRPAEEPRP | -0.175
83 | RRIRARPPRLPRPRPRPFDKPRP | -0.107
84 | RRIRMRPPRLPRPRPRPTKRPRP | 0.901
85 | RRIRQRPPRLPRPRPRPRKNPRP | 0.309
86 | RRIRGRPPRLPRPRPRPMKNPRP | 0.68
87 | RRIRWRPPRLPRPRPRPINGPRP | -0.0517
88 | RRIRFRPPRLPRPRPRPGEQPRP | -0.0185
89 | RRIRYRPPRLPRPRPRPNGQPRP | -0.0885
90 | RRIRRRPPRLPRPRPRPRHLPRP | 0.197
91 | RRIRMRPPRLPRPRPRPGMTPRP | 1.47
92 | RRIRTRPPRLPRPRPRPTVTPRP | 0.0797
93 | RRIRPRPPRLPRPRPRPTFAPRP | 0.409
94 | RRIRYRPPRLPRPRPRPFNFPRP | -0.771
95 | RRIRQRPPRLPRPRPRPLNMPRP | -0.423
96 | RRIRTRPPRLPRPRPRPKFRPRP | -0.204
97 | RRIRERPPRLPRPRPRPQSNPRP | -0.172
98 | RRIRLRPPRLPRPRPRPPWSPRP | 0.259
99 | RRIRKRPPRLPRPRPRPFGCPRP | 0.0495
100 | RRIRFRPPRLPRPRPRPWWQPRP | -0.0583

Row | Sequence | shrunken log2 fold change
101 | RRIRGRPPRLPRPRPRPKMMPRP | 0.345
102 | RRIRLRPPRLPRPRPRPEKKPRP | -0.176
103 | RRIRCRPPRLPRPRPRPHTVPRP | -0.371
104 | RRIRVRPPRLPRPRPRPRIKPRP | -0.125
105 | RRIRSRPPRLPRPRPRPAGDPRP | 0.116
106 | RRIRERPPRLPRPRPRPWQGPRP | 0.0776
107 | RRIRHRPPRLPRPRPRPWAEPRP | -0.119
108 | RRIRERPPRLPRPRPRPVLDPRP | -0.12
109 | RRIRLRPPRLPRPRPRPCVIPRP | -0.27
110 | RRIRPRPPRLPRPRPRPLYIPRP | -0.227
111 | RRIRPRPPRLPRPRPRPIYKPRP | -0.333
112 | RRIRARPPRLPRPRPRPFEVPRP | 0.455
113 | RRIRNRPPRLPRPRPRPGDWPRP | 2.87
114 | RRIRWRPPRLPRPRPRPFDNPRP | -0.114
115 | RRIRMRPPRLPRPRPRPISSPRP | -0.0416
116 | RRIRCRPPRLPRPRPRPIGAPRP | -0.0968
117 | RRIRWRPPRLPRPRPRPTYAPRP | -0.0208
118 | RRIRKRPPRLPRPRPRPTPHPRP | 0.653
119 | RRIRCRPPRLPRPRPRPFRYPRP | -0.29
120 | RRIRCRPPRLPRPRPRPDACPRP | 0.175
121 | RRIRDRPPRLPRPRPRPIAGPRP | -0.0166
122 | RRIRGRPPRLPRPRPRPKQGPRP | 0.524
123 | RRIRRRPPRLPRPRPRPNLGPRP | 0.00298
124 | RRIRRRPPRLPRPRPRPRGVPRP | 0.816
125 | RRIRDRPPRLPRPRPRPKLYPRP | 0.0658

Row | Sequence | shrunken log2 fold change
126 | RRIRVRPPRLPRPRPRPEAFPRP | 0.143
127 | RRIRVRPPRLPRPRPRPREVPRP | 0.089
128 | RRIRKRPPRLPRPRPRPMHTPRP | 0.192
129 | RRIRYRPPRLPRPRPRPPSKPRP | -0.409
130 | RRIRPRPPRLPRPRPRPYTTPRP | -0.52
131 | RRIRWRPPRLPRPRPRPLESPRP | 0.176
132 | RRIRSRPPRLPRPRPRPSVFPRP | -0.23
133 | RRIRRRPPRLPRPRPRPSIRPRP | -0.219
134 | RRIRKRPPRLPRPRPRPHRWPRP | 0.00588
135 | RRIRTRPPRLPRPRPRPQSPPRP | -0.0309
136 | RRIRCRPPRLPRPRPRPHVLPRP | -0.172
137 | RRIRHRPPRLPRPRPRPEGWPRP | 0.695
138 | RRIRVRPPRLPRPRPRPTCVPRP | -0.0916
139 | RRIRARPPRLPRPRPRPPDHPRP | 0.683
140 | RRIRHRPPRLPRPRPRPCGCPRP | -0.0378
141 | RRIRRRPPRLPRPRPRPWPRPRP | 0.349
142 | RRIRCRPPRLPRPRPRPNTNPRP | -0.66
143 | RRIRLRPPRLPRPRPRPSQAPRP | 0.182
144 | RRIRQRPPRLPRPRPRPCGPPRP | -0.141
145 | RRIRPRPPRLPRPRPRPIHRPRP | -0.0135
146 | RRIRARPPRLPRPRPRPMIWPRP | 0.415
147 | RRIRNRPPRLPRPRPRPLAWPRP | 0.00628
148 | RRIRCRPPRLPRPRPRPFLQPRP | 1.41
149 | RRIRTRPPRLPRPRPRPSPFPRP | 0.133
150 | RRIRRRPPRLPRPRPRPVSQPRP | 0.264
